Data from paper PMC11677236.

Biological target: pyruvate kinase M2 (PKM2), endogenous (human (endogenous in A375 and G361)) (UniProt P14618)
Assay: native gel or EMSA; BN-PAGE of cell lysates with β-actin as loading control; A375 with TIPE interference, G361 with TIPE overexpression; dimer and tetramer bands of PKM2

Chain of pyruvate kinase M2 (PKM2), endogenous, P14618 1-531 (enzyme; other documents disagree on this pair) (P14618 whole entry): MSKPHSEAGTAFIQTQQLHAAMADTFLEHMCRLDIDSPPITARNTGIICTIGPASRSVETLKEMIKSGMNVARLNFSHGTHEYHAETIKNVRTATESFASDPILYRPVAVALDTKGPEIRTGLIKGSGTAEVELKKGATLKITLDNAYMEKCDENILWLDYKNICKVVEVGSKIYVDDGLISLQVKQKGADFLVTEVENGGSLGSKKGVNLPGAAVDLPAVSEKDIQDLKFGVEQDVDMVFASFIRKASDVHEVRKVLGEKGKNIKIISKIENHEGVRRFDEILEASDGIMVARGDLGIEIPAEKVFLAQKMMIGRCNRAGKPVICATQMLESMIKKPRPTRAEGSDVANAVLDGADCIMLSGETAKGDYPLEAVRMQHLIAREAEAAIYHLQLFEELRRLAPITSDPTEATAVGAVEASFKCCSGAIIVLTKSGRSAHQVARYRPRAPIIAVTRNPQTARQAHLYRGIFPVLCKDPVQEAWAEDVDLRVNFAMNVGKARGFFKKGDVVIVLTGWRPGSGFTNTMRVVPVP

## pyruvate kinase M2 (PKM2), endogenous, P14618 1-531 (enzyme; other documents disagree on this pair)
  stoichiometry N: 2
